T1: rhesus ERBB3 on transiently transfected HEK-293 cells (rhesus monkey (Macaca mulatta), UniProt P21860 20-1342 (human entry))
T1 construct: also called rhesus ERBB3+ HEK-293 cells
T1 chain: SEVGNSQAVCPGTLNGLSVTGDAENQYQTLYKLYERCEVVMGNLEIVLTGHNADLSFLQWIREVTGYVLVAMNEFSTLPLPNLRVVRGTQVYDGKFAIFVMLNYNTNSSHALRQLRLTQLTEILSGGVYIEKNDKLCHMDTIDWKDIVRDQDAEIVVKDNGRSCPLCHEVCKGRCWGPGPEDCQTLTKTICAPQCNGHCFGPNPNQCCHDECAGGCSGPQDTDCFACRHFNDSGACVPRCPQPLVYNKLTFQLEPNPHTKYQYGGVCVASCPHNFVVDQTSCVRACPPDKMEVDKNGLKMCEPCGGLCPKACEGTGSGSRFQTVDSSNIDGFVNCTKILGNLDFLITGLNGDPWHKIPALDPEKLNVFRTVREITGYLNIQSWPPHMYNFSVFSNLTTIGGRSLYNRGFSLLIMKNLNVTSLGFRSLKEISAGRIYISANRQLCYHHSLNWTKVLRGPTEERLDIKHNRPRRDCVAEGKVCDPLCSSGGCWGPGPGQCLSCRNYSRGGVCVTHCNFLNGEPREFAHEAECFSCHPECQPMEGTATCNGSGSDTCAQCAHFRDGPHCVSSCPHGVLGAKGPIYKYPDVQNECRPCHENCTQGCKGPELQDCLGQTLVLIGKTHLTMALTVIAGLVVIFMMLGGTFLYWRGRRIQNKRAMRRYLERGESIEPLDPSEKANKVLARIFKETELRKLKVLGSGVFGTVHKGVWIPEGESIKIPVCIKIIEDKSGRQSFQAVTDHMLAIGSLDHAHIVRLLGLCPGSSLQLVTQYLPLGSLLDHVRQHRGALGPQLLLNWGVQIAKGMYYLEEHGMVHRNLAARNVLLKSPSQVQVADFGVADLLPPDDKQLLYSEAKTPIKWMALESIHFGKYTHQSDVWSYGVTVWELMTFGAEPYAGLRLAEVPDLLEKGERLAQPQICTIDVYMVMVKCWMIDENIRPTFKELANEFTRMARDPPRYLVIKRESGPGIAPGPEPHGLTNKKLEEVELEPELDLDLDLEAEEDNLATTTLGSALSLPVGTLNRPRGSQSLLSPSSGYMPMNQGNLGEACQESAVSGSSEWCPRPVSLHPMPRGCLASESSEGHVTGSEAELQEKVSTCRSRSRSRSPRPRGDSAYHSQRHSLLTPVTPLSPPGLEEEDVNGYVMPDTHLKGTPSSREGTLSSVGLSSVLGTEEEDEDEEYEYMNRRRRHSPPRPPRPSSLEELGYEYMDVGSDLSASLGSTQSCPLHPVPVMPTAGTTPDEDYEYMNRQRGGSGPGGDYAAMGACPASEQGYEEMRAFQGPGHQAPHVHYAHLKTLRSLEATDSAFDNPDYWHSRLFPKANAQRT

T2: rhesus monkey ERBB3 His tag, monomeric (rhesus monkey (Macaca mulatta), UniProt P21860 20-643 (human entry), limits assumed)
T2 chain: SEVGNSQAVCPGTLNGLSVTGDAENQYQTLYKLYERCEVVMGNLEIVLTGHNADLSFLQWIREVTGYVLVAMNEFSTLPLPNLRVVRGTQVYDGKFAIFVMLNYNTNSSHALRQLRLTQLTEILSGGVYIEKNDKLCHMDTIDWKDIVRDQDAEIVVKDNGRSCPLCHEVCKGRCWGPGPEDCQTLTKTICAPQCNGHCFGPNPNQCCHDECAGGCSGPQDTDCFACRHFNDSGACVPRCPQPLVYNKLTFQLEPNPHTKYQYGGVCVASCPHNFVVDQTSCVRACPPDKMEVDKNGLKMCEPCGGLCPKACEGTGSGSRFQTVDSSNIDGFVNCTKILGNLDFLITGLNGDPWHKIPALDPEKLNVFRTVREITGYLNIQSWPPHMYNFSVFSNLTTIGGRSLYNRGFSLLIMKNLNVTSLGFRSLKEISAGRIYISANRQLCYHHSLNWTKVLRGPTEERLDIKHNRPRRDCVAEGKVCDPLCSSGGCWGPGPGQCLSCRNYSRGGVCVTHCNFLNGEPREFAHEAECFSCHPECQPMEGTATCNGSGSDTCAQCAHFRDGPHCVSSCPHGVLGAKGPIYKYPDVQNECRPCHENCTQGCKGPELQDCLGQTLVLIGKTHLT

T3: rhesus monkey ERBB3 human Fc tagged recombinant protein (rhesus monkey (Macaca mulatta), UniProt P21860 20-643 (human entry), limits assumed)
T3 construct: also called rhesus ERBB3-Fc; rhERBB3
T3 chain: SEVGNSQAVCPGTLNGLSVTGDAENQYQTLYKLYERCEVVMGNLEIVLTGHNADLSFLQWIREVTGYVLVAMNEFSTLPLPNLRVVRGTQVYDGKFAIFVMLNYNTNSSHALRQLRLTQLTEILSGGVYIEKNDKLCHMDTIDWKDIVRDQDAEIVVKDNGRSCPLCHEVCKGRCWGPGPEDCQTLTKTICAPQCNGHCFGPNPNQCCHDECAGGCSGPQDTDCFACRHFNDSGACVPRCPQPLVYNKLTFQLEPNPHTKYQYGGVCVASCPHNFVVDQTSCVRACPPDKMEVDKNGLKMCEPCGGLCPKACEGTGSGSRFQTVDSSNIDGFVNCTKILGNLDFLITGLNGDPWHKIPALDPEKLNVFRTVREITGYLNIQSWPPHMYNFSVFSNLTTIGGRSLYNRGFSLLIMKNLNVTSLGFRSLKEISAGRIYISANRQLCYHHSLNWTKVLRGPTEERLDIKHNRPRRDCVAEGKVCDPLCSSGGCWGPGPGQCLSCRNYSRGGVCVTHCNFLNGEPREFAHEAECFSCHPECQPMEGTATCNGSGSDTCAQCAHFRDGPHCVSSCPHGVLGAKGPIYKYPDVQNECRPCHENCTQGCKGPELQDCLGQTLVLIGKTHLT


What was measured:
[1] = molecular target: T1, rhesus ERBB3 on transiently transfected …; assay: flow cytometry, rhesus ERBB3-transfected HEK-293
Method: (§1) Purified IgGs were tested in FACs for binding to human and rhesus monkey ERBB3 expressed on transiently transfected HEK-293 cells and HEK-293 wild-type cells. The IgG samples were titrated in three-fold serial dilutions starting at 500 nM to 0.008 nM. Binding of IgGs was detected with a mouse anti-human IgG conjugated to FITC. Results were analyzed by examining the Mean Fluorescence Intensity (MFI) of 10000 cells per sample in the BL-1 channel detector of a flow cytometer (Attune™ NxT Acoustic Focusing Cytometer, Invitrogen/ThermoFisher Scientific).
(§2) Antibodies to ERBB3 were analysed for concentration-dependent binding at the cell surface via flow cytometry. HEK-293 cells were transiently transfected with either human or rhesus ERBB3 full-length cDNAs. Anti-ERBB3 IgGs and an isotype control were then all tested in IgG1null format, over a concentration range of 500-0.008 nM for binding to human (FIG. 5A) and rhesus (FIG. 5B) transfected cells.

[2] = molecular target: T4, human ERBB3 His tagged, monomeric (human, UniProt P21860 20-643, biotinylated in the Alphascreen assays (sites not given)); assay: SPR (Biacore)
T4 construct: Used unbiotinylated as Biacore analyte and biotinylated in Alphascreen; treated as one molecule; also called human ERBB3-His (Acrobiosystems); biotinylated monomeric human ERBB3
Method: (§3) Affinity (KD) of purified IgGs was determined via SPR with antigen in-solution on a Biacore® 3000 (GE). A mouse anti-human antibody (CH1 specific) was immobilized on a CM5 Sensor Chip to a level of 2000 RU in acetate buffer at pH 4.5 using amine coupling following the Wizard instructions for two channels. One channel was used for background signal correction. The standard running buffer HBS-EP pH 7.4 was used. Regeneration was performed with a single injection of 10 μl of 10 mM Glycine at pH 1.5 at […]. IgG samples were injected for 2 minutes at 50 nM at 30 μl/min followed by an off-rate of 60 seconds. The monomeric antigen (human ERBB3 His tagged or rhesus monkey ERBB3 His tag) was injected in two fold serial dilutions from 3 nM down to 0.2 nM, for 2 minutes at 30 μl/min followed by an off-rate of 300 seconds. The obtained sensorgrams were analysed using the Biacore® 3000 evaluation (BlAevaluation) software. The KD was calculated by simultaneous fitting of the association and dissociation phases to a 1:1 Langmuir binding model.

[3] = molecular target: T2, rhesus monkey ERBB3 His tag, monomeric; assay: SPR (Biacore)
Method: as §3

[4] = molecular target: T4, human ERBB3 His tagged, monomeric; assay: SPR (Biacore), captured IgG, monomeric ERBB3-His analyte
Method: as §3
(§4) Biacore® analyses of binding affinity were performed for all IgGs to solution-phase, monomeric human and rhesus ERBB3 proteins.

[5] = molecular target: T2, rhesus monkey ERBB3 His tag, monomeric; assay: as above
Method: as §3, §4

[6] = molecular target: T5, human ERBB3 on transiently transfected HEK-293 cells (human, UniProt P21860 20-1342); assay: flow cytometry, human ERBB3-transfected HEK-293
T5 construct: also called human ERBB3+ HEK-293 cells
Method: as §1, §2

[7] = molecular target: T4, human ERBB3 His tagged, monomeric; assay: Alphascreen competition in solution, competitor h24C05 IgG1null, biotinylated human ERBB3-His
Method: The AlphaScreen assay (Perkin Elmer) was performed in a 25 μl final volume in 384-well white microtiter plates (Greiner). The reaction buffer contained 1×PBS pH 7.3 (Oxoid, Cat. nr. BR0014G) and 0.05% (v/v) Tween® 20 (Sigma, Cat. nr. P9416). Purified IgG samples were titrated in three fold serial dilutions starting at 100 nM final concentration and incubated with biotinylated human ERBB3-His (Acrobiosystems) at 1 nM final concentration for 20 minutes at room temperature. The parental IgG and the anti-human IgG1 Acceptor beads at were added and the mix was incubated for 1 hour at room temperature. Followed by addition of the Streptavidin Donor beads and incubation for 30 minutes at room temperature. The emission of light was measured in the EnVision multilabel plate reader (Perkin Elmer) and analysed using the EnVision manager software. Values were reported as Counts Per Second (CPS) and corrected for crosstalk.

[8] = molecular target: T1, rhesus ERBB3 on transiently transfected …; assay: flow cytometry, rhesus ERBB3-transfected HEK-293 cells, IgG1 titrated
Method: as §1

[9] = molecular target: T3, rhesus monkey ERBB3 human Fc tagged …; assay: direct binding ELISA on coated rhesus ERBB3-Fc, IgG1 titrated
Method: (§5) Binding and cross-reactivity of the lead panel to the recombinant proteins was initially assessed by binding ELISA. The human ERBB3 human Fc tagged recombinant protein and the rhesus monkey ERBB3 human Fc tagged recombinant protein were coated to the surface of MaxiSorp™ flat-bottom 96 well plate at 1 μg/ml. The purified IgG samples were titrated in two fold serial dilutions starting from 500 nM to 0.008 nM and allowed to bind to the coated antigens. The Fabs were detected using mouse anti-c-myc antibody followed by donkey anti-mouse IgG conjugated to horseradish peroxidase. The IgGs were detected using the mouse anti-human IgG conjugated to horseradish peroxidase. Binding signals were visualized with 3,3′,5,5′-Tetramethylbenzidine Substrate Solution (TMB) and the absorbance measured at 450 nm.

[10] = molecular target: T4, human ERBB3 His tagged, monomeric; assay: Alphascreen competition, solution phase; competitor h24C05 IgG1
[11] = molecular target: T6, human ERBB3 human Fc tagged recombinant protein (human, UniProt P21860 20-643); assay: direct binding ELISA on coated human ERBB3-Fc, IgG1 titrated
T6 construct: also called human ERBB3-Fc; huERBB3
Method: as §5

[12] = molecular target: T7, human insulin (human, UniProt P01308 25-54; P01308 90-110, limits assumed); assay: polyreactivity ELISA on human insulin, score
T7 construct: Off-target protein in the development risk (polyreactivity) ELISA
T7 sequence (P01308 25-54 limits assumed, chain 1 of 2): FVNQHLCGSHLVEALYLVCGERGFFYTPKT
T7 sequence (P01308 90-110 limits assumed, chain 2 of 2): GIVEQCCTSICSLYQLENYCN

maximum MFI, fold over isotype control background [1] | fold reduction in binding affinity against clone MH2 [2] | fold reduction in binding affinity against clone MH2 [3] | Kd [4] | koff [4] | kon [4] | Kd [5] | koff [5] | kon [5] | maximum MFI, fold over isotype control background [6] | IC50 (read off the curve) [7] | EC50 (read off the curve) [8] | EC50 (read off the curve) [9] | IC50 [10] | EC50 (read off the curve) [11] | binding result [12] | Binder
> 20 fold | ~3 fold | ~3 fold | 0.85 nM | 0.0065 s⁻¹ | 7.6e+06 M⁻¹ s⁻¹ | 0.63 nM | 0.011 s⁻¹ | 1.8e+07 M⁻¹ s⁻¹ | > 20 fold | – | – | – | – | – | – | MH3 IgG1null (antibody, V domains shown, Designer (Maximally Humanized) clone; Human IgG1null and human Ckappa) VH: QVQLVESGGGLVKPGGSLRLSCAASGFTFSDYSMSWIRQAPGKGLEWVSTISDSGSTIYYADSVKGRFTISRDNAKNSLYLQMNSLRAEDTAVYYCAREWGDYDGFDFWGQGTLVTVSS VL: DIQMTQSPSSLSASVGDRVTITCRASQSISSYLSWYQQKPGKAPKLLIYAASSLQSGVPSRFSGSGSGTDFTLTISSLQPEDFATYYCLQYDSTPLTFGGGTKVEIK
> 20 fold | – | – | 0.039 nM | 0.00096 s⁻¹ | 2.5e+07 M⁻¹ s⁻¹ | 0.18 nM | 0.00074 s⁻¹ | 4.1e+06 M⁻¹ s⁻¹ | > 20 fold | ~5 nM | – | – | – | – | – | h24C05 IgG1null (antibody, V domains shown, Human IgG1null (L234A, L235A, G237A) and human Ckappa; also called humanized 24C05) VH: QVQLVESGGGLVKPGGSLRLSCAASGFTFSDYAMSWIRQAPGKGLEWVSTISDGGTYTYYPDNVKGRFTISRDNAKNSLYLQMNSLRAEDTAVYYCAREWGDYDGFDYWGQGTLVTVSS VL: DIQMTQSPSSLSASVGDRVTITCRASQEISGYLSWFQQKPGKAPKSLIYAASTLDSGVPSRFSGSGSGTDFTLTISSLQPEDFATYYCLQYDSYPYTFGGGTKVEIK
– | – | – | – | – | – | – | – | – | – | – | ~0.2 nM | ~0.1 nM | 1.25 nM | ~0.1 nM | no binding | h24C05 IgG1 (antibody, V domains shown, Human IgG1 and human Ckappa; also called humanized 24C05) VH: QVQLVESGGGLVKPGGSLRLSCAASGFTFSDYAMSWIRQAPGKGLEWVSTISDGGTYTYYPDNVKGRFTISRDNAKNSLYLQMNSLRAEDTAVYYCAREWGDYDGFDYWGQGTLVTVSS VL: DIQMTQSPSSLSASVGDRVTITCRASQEISGYLSWFQQKPGKAPKSLIYAASTLDSGVPSRFSGSGSGTDFTLTISSLQPEDFATYYCLQYDSYPYTFGGGTKVEIK
